Laboratory results: article PMC6580467
Each block holds one binder with its values, some of them ahead of it.

Molecular target: C-type lectin-like receptor 2 (CLEC-2) on platelets (human (endogenous in platelets of healthy donors)) (UniProt Q9P126)
UniProt Q9P126, sequence (Q9P126 whole entry): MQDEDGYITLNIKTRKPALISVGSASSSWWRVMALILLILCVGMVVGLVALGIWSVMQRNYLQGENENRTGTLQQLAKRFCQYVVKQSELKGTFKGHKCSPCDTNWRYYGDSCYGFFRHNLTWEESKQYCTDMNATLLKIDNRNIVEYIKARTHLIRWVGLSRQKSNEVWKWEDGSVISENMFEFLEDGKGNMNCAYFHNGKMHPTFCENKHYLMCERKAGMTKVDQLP

inhibition by mAb SZ168 (10, 15 μg/mL) of platelet aggregation induced by NCI-H226 cells in human platelet-rich plasma; maximal inhibition ratio: 74.2%
inhibition by mAb SZ168 (15, 20 μg/mL) of platelet aggregation induced by C8161 cells in human platelet-rich plasma; maximal inhibition ratio at 20 μg/mL: 73.9%
inhibition by mAb SZ168 (20, 25 μg/mL) of platelet aggregation induced by CNE-2 cells in human platelet-rich plasma; maximal inhibition ratio at 25 μg/mL: 77.1%
B1: Podoplanin (PDPN), endogenous on human cancer cell lines (natural protein)
chain: ASTGQPEDDTETTGLEGGVAMPGAEDDVVTPGTSEDRYKSGLTTLVATSVNSVTGIRIEDLPTSESTVHAQEQSPSATASNVATSHSTEKVDGDTQTTVEKDGLSTVTLVGIIVGVLLAIGFIGAIIVVVMRKMSGRYSP

inhibition by mAb SZ168 (10, 15 μg/mL) of platelet aggregation induced by CHO/hPDPN cells in human platelet-rich plasma; maximal inhibition ratio: 72.6%
B2: Human podoplanin expressed on CHO cells (CHO/hPDPN) (natural protein)
chain: B1 chain
